B1: TMEM175 (parent)
chain: QTSAFARQPRDELERVRVSCTIIF

Variants of: B1
Assay: protein stability index of a GFP-peptide fusion (GPS, HEK-293T) (PSI 1-6); higher = more stable
Conditions: c terminus: a fixed tail appended
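Note: lentivirally expressed fusions sorted by FACS into six bins by GFP to DsRed ratio, PSI derived from sequencing read proportions per bin multiplied by bin number.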

Variant	protein stability index
QTSAFARQPRDEDERVRVSCTIIF [L13D]	1.3
QTSAFARQPRDEEERVRVSCTIIF [L13E]	1.83
QTSAFARQPRDEFERVRVSCTIIF [L13F]	3.31
QTSAFARQPRDEGERVRVSCTIIF [L13G]	1.59
QTSAFARQPRDEIERVRVSCTIIF [L13I]	1.54
QTSAFARQPRDEKERVRVSCTIIF [L13K]	1.64
QTSAFARQPRDEMERVRVSCTIIF [L13M]	2.23
QTSAFARQPRDENERVRVSCTIIF [L13N]	1.55
QTSAFARQPRDEPERVRVSCTIIF [L13P]	2.37
QTSAFARQPRDEQERVRVSCTIIF [L13Q]	1.27
QTSAFARQPRDERERVRVSCTIIF [L13R]	2.76
QTSAFARQPRDESERVRVSCTIIF [L13S]	2
QTSAFARQPRDETERVRVSCTIIF [L13T]	1.99
QTSAFARQPRDEVERVRVSCTIIF [L13V]	2.53
QTSAFARQPRDEWERVRVSCTIIF [L13W]	2.89
QTSAFARQPRDEYERVRVSCTIIF [L13Y]	4.09
QTSAFARQPRDELARVRVSCTIIF [E14A]	1.67
QTSAFARQPRDELDRVRVSCTIIF [E14D]	1.84
QTSAFARQPRDELFRVRVSCTIIF [E14F]	3.09
QTSAFARQPRDELNRVRVSCTIIF [E14N]	1.1
QTSAFARQPRDELPRVRVSCTIIF [E14P]	3.5
QTSAFARQPRDELQRVRVSCTIIF [E14Q]	2.93
QTSAFARQPRDELRRVRVSCTIIF [E14R]	2.03
QTSAFARQPRDELVRVRVSCTIIF [E14V]	2.86

Variant	protein stability index
QTSAFARQPRDELWRVRVSCTIIF [E14W]	2.96
QTSAFARQPRDELYRVRVSCTIIF [E14Y]	3.27
QTSAFARQPRDELEAVRVSCTIIF [R15A]	3.73
QTSAFARQPRDELECVRVSCTIIF [R15C]	1.88
QTSAFARQPRDELEDVRVSCTIIF [R15D]	1.79
QTSAFARQPRDELEEVRVSCTIIF [R15E]	3.77
QTSAFARQPRDELEFVRVSCTIIF [R15F]	2.54
QTSAFARQPRDELEGVRVSCTIIF [R15G]	3.8
QTSAFARQPRDELEIVRVSCTIIF [R15I]	3.42
QTSAFARQPRDELEKVRVSCTIIF [R15K]	3.37
QTSAFARQPRDELELVRVSCTIIF [R15L]	3.73
QTSAFARQPRDELEMVRVSCTIIF [R15M]	2.04
QTSAFARQPRDELENVRVSCTIIF [R15N]	4.18
QTSAFARQPRDELEPVRVSCTIIF [R15P]	2.19
QTSAFARQPRDELEQVRVSCTIIF [R15Q]	1.77
QTSAFARQPRDELETVRVSCTIIF [R15T]	5.08
QTSAFARQPRDELEVVRVSCTIIF [R15V]	2.81
QTSAFARQPRDELEWVRVSCTIIF [R15W]	3.37
QTSAFARQPRDELEYVRVSCTIIF [R15Y]	3.62
QTSAFARQPRDELERARVSCTIIF [V16A]	2.06
QTSAFARQPRDELERDRVSCTIIF [V16D]	1.98
QTSAFARQPRDELERERVSCTIIF [V16E]	2.22
QTSAFARQPRDELERFRVSCTIIF [V16F]	2
QTSAFARQPRDELERGRVSCTIIF [V16G]	1.14

Variant	protein stability index
QTSAFARQPRDELERHRVSCTIIF [V16H]	2.65
QTSAFARQPRDELERIRVSCTIIF [V16I]	2.63
QTSAFARQPRDELERKRVSCTIIF [V16K]	1.97
QTSAFARQPRDELERLRVSCTIIF [V16L]	1.91
QTSAFARQPRDELERMRVSCTIIF [V16M]	1.16
QTSAFARQPRDELERNRVSCTIIF [V16N]	2.04
QTSAFARQPRDELERQRVSCTIIF [V16Q]	2.53
QTSAFARQPRDELERRRVSCTIIF [V16R]	2.47
QTSAFARQPRDELERSRVSCTIIF [V16S]	1.83
QTSAFARQPRDELERTRVSCTIIF [V16T]	1.4
QTSAFARQPRDELERWRVSCTIIF [V16W]	2.56
QTSAFARQPRDELERYRVSCTIIF [V16Y]	2.81
QTSAFARQPRDELERVAVSCTIIF [R17A]	3.04
QTSAFARQPRDELERVCVSCTIIF [R17C]	1.28
QTSAFARQPRDELERVDVSCTIIF [R17D]	2.58
QTSAFARQPRDELERVEVSCTIIF [R17E]	2.92
QTSAFARQPRDELERVFVSCTIIF [R17F]	2
QTSAFARQPRDELERVGVSCTIIF [R17G]	2.53
QTSAFARQPRDELERVHVSCTIIF [R17H]	2.73
QTSAFARQPRDELERVIVSCTIIF [R17I]	2.2
QTSAFARQPRDELERVLVSCTIIF [R17L]	4.15
QTSAFARQPRDELERVMVSCTIIF [R17M]	2.91
QTSAFARQPRDELERVNVSCTIIF [R17N]	3.17
QTSAFARQPRDELERVPVSCTIIF [R17P]	2.09

Variant	protein stability index
QTSAFARQPRDELERVQVSCTIIF [R17Q]	3.06
QTSAFARQPRDELERVSVSCTIIF [R17S]	2.35
QTSAFARQPRDELERVYVSCTIIF [R17Y]	4.15
QTSAFARQPRDELERVRASCTIIF [V18A]	2.53
QTSAFARQPRDELERVRCSCTIIF [V18C]	1.82
QTSAFARQPRDELERVRDSCTIIF [V18D]	2.02
QTSAFARQPRDELERVRESCTIIF [V18E]	2.31
QTSAFARQPRDELERVRFSCTIIF [V18F]	2.17
QTSAFARQPRDELERVRGSCTIIF [V18G]	1.79
QTSAFARQPRDELERVRHSCTIIF [V18H]	1.83
QTSAFARQPRDELERVRISCTIIF [V18I]	2.49
QTSAFARQPRDELERVRKSCTIIF [V18K]	2.41
QTSAFARQPRDELERVRLSCTIIF [V18L]	1.08
QTSAFARQPRDELERVRMSCTIIF [V18M]	1.88
QTSAFARQPRDELERVRNSCTIIF [V18N]	2.35
QTSAFARQPRDELERVRPSCTIIF [V18P]	2.47
QTSAFARQPRDELERVRQSCTIIF [V18Q]	1.71
QTSAFARQPRDELERVRRSCTIIF [V18R]	1.57
QTSAFARQPRDELERVRSSCTIIF [V18S]	2.23
QTSAFARQPRDELERVRTSCTIIF [V18T]	2.2
QTSAFARQPRDELERVRWSCTIIF [V18W]	2.19
QTSAFARQPRDELERVRYSCTIIF [V18Y]	2.11
